Test [1] deals with T1, human CLDN18.1 (human, UniProt P56856 1-261).
T1 construct: Full length, overexpressed on HEK293 cells; also called hCLDN18.1; human CLDN18.1-HEK293
Briefly: flow cytometry, phage supernatant on human CLDN18.1-HEK293 cells.
From the text: (§1) firstly, 1×10⁵ of human CLDN18.2-HEK293T and human CLDN18.1-HEK293 cells were taken, respectively and centrifuged at a low speed of 500 g, and the supernatant was removed.

In test [2] the target is T1, human CLDN18.1. Nature of the test: flow cytometry, phage supernatant on hCLDN18.1-expressing HEK293 cells. (Flow cytometry measures light scatter and fluorescence of single cells or particles in a stream.)
From the text: as §1
The target in test [3] is T2, human CLDN18.2 (human).
T2 construct: also called hCLDN18.2; huCLDN18.2
Briefly: flow cytometry, phage supernatant on hCLDN18.2-expressing HEK293T cells.
From the text: as §1

In test [4] the target is T2, human CLDN18.2. Briefly: flow cytometry, phage supernatant; hCLDN18.2 cells against hCLDN18.1 cells.
From the text: as §1
For test [5], the target named is T2, human CLDN18.2. Nature of the test: cell-based or functional assay.
Test [6] has as its target T1, human CLDN18.1. Briefly: flow cytometry on CLDN18.1-HEK293 cells, different concentrations.
Method: Therefore, in this example, different concentrations of the antibody (including the high concentration of 100 μg/mL) were used to incubate with CLDN18.1-HEK293 in vitro. […] The antibody at different concentrations and target cells CLDN18.1-HEK293 were incubated at 4° C. for 1 h and then rinsed three times with the FACS buffer mentioned above. 0.5 μg (0.5 mg/ml) of PE-labelled goat anti-human IgG Fc antibody (Abcam, ab98596) was added and incubated at 4° C. for another 1 h. […] The binding strength and the positive rate of cell binding were recorded.

T1 sequence (P56856 whole entry): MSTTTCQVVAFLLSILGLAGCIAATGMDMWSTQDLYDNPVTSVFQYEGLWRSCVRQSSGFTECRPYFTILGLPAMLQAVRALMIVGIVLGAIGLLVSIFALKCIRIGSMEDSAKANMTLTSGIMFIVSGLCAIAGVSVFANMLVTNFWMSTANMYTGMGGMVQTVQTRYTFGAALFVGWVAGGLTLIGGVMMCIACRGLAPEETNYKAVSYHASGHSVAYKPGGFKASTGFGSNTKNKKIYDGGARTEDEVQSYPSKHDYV

B1: A18-1-42 (VHH)
VHH: EVQVVESGGGLVQPGGSLRLSCAASGSILHIPVMSWYRQAPGKQRELVAGISTGGTTNYGDSVKGRFTISRDNAKNTVYLQMNSLKPEDTAAYYCNVLVVSGIGSHLEVWG
notes: also called candidate nanobody A18-1-42
B1: the binding result in test [1] is given as “no binding”. In addition, the mean fluorescence intensity in test [2] amounted to 1010 MFI; in test [3] it was 396000 MFI. Moreover, the “ratio of mean fluorescence intensities on hCLDN18.2 and hCLDN18.1 cells” value (from here on “ratio of mean fluorescence intensities”) in test [4] was determined as 392.

B2: A18-1-44 (VHH)
VHH: EVQLVESGGGLVQPGGSLRLSCAASGSIFNLPVMSWYRQAPGKQRELVAGISTGGTTNYGDSVKGRFTISRDNAKNTVYLQMNSLKPEDTAVYYCNVLVISGIGSHLEVWG
With B2, the binding result in test [1] was “no binding”. The results for the mean fluorescence intensity in test [2] and in test [3] were 3740 MFI and 390000 MFI, respectively. The “ratio of mean fluorescence intensities” value in test [4] worked out at 104.

B3: A18-1-65 (VHH)
VHH: EVQLQESGGGLVQPGGSLRLSCAASGTIFNLPVMSWYRQAPGKQRELVAGISTGGTTNYGDSVKGRFTISRDNARNTVYLQMNSLKPEDTAVYYCNVLVVSGIGSHLEVWG
Take B3: the binding result in test [1] is listed as “no binding”. For the same molecule, the mean fluorescence intensity came to 5890 MFI in test [2] and 428000 MFI in test [3]. In addition, the “ratio of mean fluorescence intensities” value in test [4] was 73.

B4: humanized antibody NA3S-H1 (Fc fusion)
chain: QVQLVESGGGLVQPGGSLRLSCAASGSIFNIPVMGWYRQAPGKQRELVAGISTGGTTNYGDSVKGRFTISRDNAKNTVYLQMNSLKPEDTAVYYCNVLVVSGIGSTLEVWGQGTLVTVSS
notes: Humanized form of NA3-S; also called candidate antibody NA3S-H1; humanized molecule NA3S-H1; not shown: a human IgG Fc is implied (detected with anti-human IgG Fc)
As to B4, in test [5], the “CDC cell killing on CLDN18.2-KATOIII cells, EC50” value is 10.4 nM. Besides, the binding result in test [6] is “no binding (tested: 100 µg/mL)”.

B5: A18-1-62 (VHH)
VHH: QVQLVESGGGLVQPGGSLRLSCAASGTIFNIPVMGWYRQAPGKQRELVAGISTGGTTNYGDSVKGRFTISRDNAKNTVYLQMNSLKPEDTAVYYCNVLVISGIGSHLEVWG
For B5, the binding result in test [1] is listed as “no binding”. Besides, the values for the mean fluorescence intensity in test [2] and in test [3] were 2940 MFI and 372000 MFI, respectively. Moreover, the “ratio of mean fluorescence intensities” value in test [4] worked out at 126.

B6: A18-1-45 (VHH)
VHH: EVQLQESGGGLVQPGGSLRLSCAASGIIFNIPVMSWYRQAPGKQRELVAGISTGGTTNYGDSVKGRFTISRDNAKNTVYLQMNSLKPEDTAVYYCNVLVVSGIGSHLEVWG
Consider B6, for which the binding result in test [1] is reported as “no binding”. The values for the mean fluorescence intensity in test [2] and in test [3] were 4750 MFI and 369000 MFI, respectively. The “ratio of mean fluorescence intensities” value in test [4] is 78.

B7: A-2-3 (VHH)
VHH: EVQLVESGGGLVQPGGSLRLSCAASGSIFNLPVMSWYRQAPGKQRELVAGISTGGTTNYGDSVKGRFTISRDNAKNTVYLQMNSLKPEDTAVYYCNVLVVSGIGSHLEVWG
As for B7, the binding result in test [1] is reported as “no binding”. The mean fluorescence intensity in test [2] came out at 3260 MFI; in test [3] it was 570000 MFI. Also, the “ratio of mean fluorescence intensities” value in test [4] is 175.

B8: A18-1-6 (VHH)
VHH: EVQVQESGGGLVQPGGSLRLSCAASGSIFNIPVMSWYRQAPGKQRELVAGISTGGTTNYGDSVKGRFTISRDNAKTTVYLQMNSLKPEDTAVYYCNVLVISGIGSHLEVWG
As to B8, in test [1], the binding result was “no binding”. Moreover, the mean fluorescence intensity in test [2] was 1970 MFI; in test [3] it was 396000 MFI. Moreover, the “ratio of mean fluorescence intensities” value in test [4] amounted to 201.

B9: A18-1-63 (VHH)
VHH: QVQLQESGGGLVQPGGSLRLSCAASGSIFNIPVMGWYRQAPGKQRELVAGISTGGTTNYGDSVKGRFTISRDNAKNTVYLQMNSLKPEDTAVYYCNVLVVSGIGSTLEVWG
notes: also called candidate nanobody A18-1-63
Take B9: the binding result in test [1] was “no binding”. For the same molecule, the mean fluorescence intensity in test [2] came out at 175 MFI; in test [3], 385000 MFI. The “ratio of mean fluorescence intensities” value in test [4] came out at 2200.

B10: A293-34 (VHH)
VHH: QVQLQESGGGLVQPGGSLRLSCAASGTFFNIPVMGWYRQAPGKQRELVAGISTGGTTNYGDSVKGRFTISRDNAKNTVYLQMNSLKPEDTAVYYCNVLVISGIGSHLEVWG
notes: also called candidate nanobody A293-34
With B10, the binding result in test [1] is given as “no binding”. Also, the mean fluorescence intensity in test [2] was found to be 2430 MFI; in test [3], 454000 MFI. Moreover, the “ratio of mean fluorescence intensities” value in test [4] was determined as 187.

B11: A293-55 (VHH)
VHH: QVQLVESGGGSVQPGGSLRLSCAASGSIFHIVVMGWYRQAPGKQRELVAGMSTGGTTNYGDSVKGRFTISRDNAKNTVYLQMNSLKPEDTAVYYCNVLVISGIGSHLEVWG
In the case of B11, in test [1], the binding result is “no binding”. Besides, the mean fluorescence intensity is 3340 MFI in test [2] and 392000 MFI in test [3]. The “ratio of mean fluorescence intensities” value in test [4] came out at 117.

B12: IMAB362 antibody (antibody, V domains shown)
VH: QVQLQQPGAELVRPGASVKLSCKASGYTFTSYWINWVKQRPGQGLEWIGNIYPSDSYTNYNQKFKDKATLTVDKSSSTAYMQLSSPTSEDSAVYYCTRSWRGNSFDYWGQGTTLTVSS
VL: DIVMTQSPSSLTVTAGEKVTMSCKSSQSLLNSGNQKNYLTWYQQKPGQPPKLLIYWASTRESGVPDRFTGSGSGTDFTLTISSVQAEDLAVYYCQNDYSYPFTFGSGTKLEIKR
For the molecule B12, in test [5], the “CDC cell killing on CLDN18.2-KATOIII cells, EC50 (run with NA3S-H1)” value is 149 nM; the “CDC cell killing on human CLDN18.2-HEK293T cells, EC50” value came out at 0.936 nM; the “CDC cell killing on human CLDN18.2-KATOIII tumor cells, EC50 (run with NA1-S, FIG. 6b)” value is 50.9 nM; the “CDC cell killing on human CLDN18.2-KATOIII tumor cells, EC50 (run with NA3-S, FIG. 7d)” value turned out to be 85.8 nM. In test [5], the “Fab-ZAP cell killing (internalization) on CLDN18.2-HEK293T cells, IC50 (run with NA1-S)” value was found to be 0.24 nM and the “Fab-ZAP cell killing (internalization) on CLDN18.2-HEK293T cells, IC50 (run with NA3-S)” value is 0.32 nM.

B13: A18-1-48 (VHH)
VHH: EVQLVESGGGLVQPGGSLRLSCAASGNIFRIDTMGWYRQAPGKQREFVAGISRGGSTNYAHSVKERFTISRDNAKNTMYLQMNSLKSEDTAGYYCNAQAWDPGTIRYLEVWGQGTLVTVSA
Regarding B13, the mean fluorescence intensity in test [2] came to 3450 MFI; in test [3], 357000 MFI. Besides, the “ratio of mean fluorescence intensities” value in test [4] was 103.

B14: A18-1-70 (VHH)
VHH: QVQLVESGGGLVQPGGSLRLSCAASGNIFRIDTMGWYRQAPGKQRELVAGISRGGTTTYAHSVKERFTISRDNAKNTMYLQMNSLKSEDTAGYYCNAQAWDPGTFRYLEVWGQGTLVTVSA
Take B14: the mean fluorescence intensity in test [2] is 6230 MFI; in test [3], 402000 MFI. For the same molecule, the “ratio of mean fluorescence intensities” value in test [4] came to 65.

B15: A18-1-75 (VHH)
VHH: EVQLVESGGGLVQPGGSLRLSCAASGNIFRIDTMVWYRQAPGKQRELVAGISRGGTTNYAHSVKGRFTISRDNAKNTMYLQMNSLKSEDTATYYCNAQAWDVGTIRYLEVWGQGTLVTVSA
In the case of B15, the mean fluorescence intensity in test [2] came to 3890 MFI; in test [3], 387000 MFI. Also, the “ratio of mean fluorescence intensities” value in test [4] came to 99.

B16: A18-1-50 (VHH)
VHH: EVQVQESGGGLVQPGGSLRLSCAASGNIFRIDTMGWYRQAPGKQRELVAGISRGGTTTYAHSVKERFTISRDNAKNTMYLQMNSLKSEDTAGYYCNAQAWDPGTFRYLEVWGQGTLVTVSA
For the molecule B16, the mean fluorescence intensity amounted to 6040 MFI in test [2] and 403000 MFI in test [3]. The “ratio of mean fluorescence intensities” value in test [4] stood at 67.

B17: A18-1-64 (VHH)
VHH: QVQLVESGGGLVQPGGSLRLSCAASGNIFRIDTMGWYRQAPGKQREFVAGISRGGSTNYAHSVKERFTISRDNAKNTMYLQMNSLKSEDTAGYYCNAQAWDPGTIRYLEVWGQGTLVTVSS
As for B17, the mean fluorescence intensity is 3500 MFI in test [2] and 406000 MFI in test [3]. Also, in test [4], the “ratio of mean fluorescence intensities” value is 116.

B18: A18-1-78 (VHH)
VHH: EVQLQESGGGLVQPGGSLRLSCAASGNIFRIDTMGWYRQAPGKQREFVAGISRGGSTNYAHSVKERFTISRDNAKNTMYLQMNSLKSEDTAGYYCNAQAWDPGTIRYLEVWGQGTLVTVSA
B18: the mean fluorescence intensity in test [2] turned out to be 3680 MFI; in test [3], 385000 MFI. In addition, in test [4], the “ratio of mean fluorescence intensities” value was determined as 105.

B19: A-2-4 (VHH)
VHH: EVQVQESGGGLVQAGTSLRLSCAASGNIFRIDTMGWYRQAPGKQRELVAGISRGGTTTYAHSVKERFTISRDNAKNTMYLQMNSLKSEDTAGYYCNAQAWDPGTFRYLEVWGQGTLVTVSA
notes: also called candidate nanobody A-2-4
As for B19, the mean fluorescence intensity is 4330 MFI in test [2] and 592000 MFI in test [3]. The “ratio of mean fluorescence intensities” value in test [4] was determined as 137.

B20: A293-82 (VHH)
VHH: EVQVVESGGGLVQPGGSLRLSCAASGNIFRIDTMVWYRQAPGKQRELVAGISRGGTTNYAHSVKGRFTISRDNAKNTMYLQMNSLKSEDTATYYCNAQAWDVGTIRYLEVWGQGTLVTVSA
For B20, the mean fluorescence intensity in test [2] stood at 4320 MFI; in test [3], 442000 MFI. The “ratio of mean fluorescence intensities” value in test [4] was 102.

The record behind these values is patent US20220396616A1 (SANYOU BIOPHARMACEUTICALS, published 2022).
